Assay [1] deals with T1, SARS-CoV-2 Wuhan-Hu-1 spike receptor-binding domain (RBD) (SARS-CoV-2 Wuhan-Hu-1, UniProt P0DTC2). The assay can be described thus: crystal structure.
Assay [2] deals with T1, SARS-CoV-2 Wuhan-Hu-1 spike …. The assay can be described thus: BLI.
Assay [3] has the same target. Nature of the assay: ELISA.

B1: Fab fragment from NCV2SG48 (Fab, V domains shown)
VH: EVQLVESGGGLIQPGGSLRLSCAASGFIVSRNYMNWVRQAPGKGLEWVALIYSGGSTFYADSVKGRFTISRDNSKNTLYLQMNSLRAEDTAVYYCARDLVVYGLDYWGQGTLVTVSS
VL: AIQLTQSPSSLSASVGDRVTITCRASQGISSHLAWYQQKPGKAPKLLIFAASTLQSGVPSRFSGSGSGTDFTLTISSLQPEDFATYYCQHLNSNPPITFGQGTRLEIK
In the case of B1, the binding result in assay [1] was “binds”.

B2: NCV2SG48 monoclonal antibody (human IgG) (antibody, V domains shown)
VH: B1 VH
VL: B1 VL
Regarding B2, the binding result in assay [2] is given as “binds”.

B3: NCV2SG53 monoclonal antibody (human IgG) (antibody, V domains shown)
VH: QVQMVESGGGLVRPGGSLRLSCAASGFTFSDYYMSWIRQAPGKGLEWISYISSSGSSMNYADSVKGRFTISRDNAKNSLFLQMNSLRAEDTAVYYCAREFDLTKIIMVPPYWGQGTLVTVSS
VL: AIQLTQSPSSLSASVGDRVTITCRASQGISSYLAWYQQKPGKAPKVLIYAASTLQSGVPSRFSGSGSGTDFTLTISSLQPEDFATYYCQQLKSYPLTFGGGTKVEIT
With B3, the binding result in assay [3] was “binds”.

B4: Fab fragment of NCV2SG53 (Fab, V domains shown)
VH: B3 VH
VL: B3 VL
In the case of B4, in assay [1], the binding result was “binds”.

These data come from paper doi:10.1101/2022.01.26.477937 (bioRxiv, 2022).
